Source: US20220162305A1 (IMCHECK THERAPEUTICS, published 2022)

T1: recombinant human BTN2A1-Fc fusion protein (GTP Technologies) (human, UniProt Q7KYR7 29-248, biotinylated with EZ-Link NHS-PEG4 biotin for the Octet affinity assay (sites not given))
T1 construct: Bought soluble Fc fusion; Used biotinylated in Octet, unmodified in ELISA and cross-linking MS; also called rhBTN2A1-Fc; huBTN2A1-Fc; not shown: Fc part of the bought fusion protein
T1 sequence: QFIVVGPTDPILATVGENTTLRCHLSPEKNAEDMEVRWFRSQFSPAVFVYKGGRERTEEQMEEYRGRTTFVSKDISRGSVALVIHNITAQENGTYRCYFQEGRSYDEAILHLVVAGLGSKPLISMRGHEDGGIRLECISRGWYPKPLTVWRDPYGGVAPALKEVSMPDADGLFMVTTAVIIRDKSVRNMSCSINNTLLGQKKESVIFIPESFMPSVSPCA

T2: biotinylated recombinant human BTN2A2-Fc (R&D Systems) (human, UniProt Q8WVV5 33-265, limits assumed, biotinylated (sites not given))
T2 construct: Bought soluble Fc fusion; also called rhBTN2A2-Fc; not shown: Fc part of the bought fusion protein
T2 sequence: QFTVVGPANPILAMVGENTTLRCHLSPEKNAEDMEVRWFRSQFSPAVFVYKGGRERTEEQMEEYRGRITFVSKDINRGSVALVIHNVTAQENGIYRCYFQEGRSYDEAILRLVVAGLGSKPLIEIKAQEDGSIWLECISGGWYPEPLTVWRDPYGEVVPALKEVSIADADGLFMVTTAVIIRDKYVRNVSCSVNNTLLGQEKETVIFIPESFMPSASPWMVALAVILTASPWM

T3: human BTN2A1-CFP fusion protein expressed on HEK-293T BTN2 KO cells (human, UniProt Q7KYR7 29-527)
T3 construct: not shown: CFP tag; printed as 'CFP(Nter)-fusion' and as 'BTN2A1-CFP'
T3 sequence: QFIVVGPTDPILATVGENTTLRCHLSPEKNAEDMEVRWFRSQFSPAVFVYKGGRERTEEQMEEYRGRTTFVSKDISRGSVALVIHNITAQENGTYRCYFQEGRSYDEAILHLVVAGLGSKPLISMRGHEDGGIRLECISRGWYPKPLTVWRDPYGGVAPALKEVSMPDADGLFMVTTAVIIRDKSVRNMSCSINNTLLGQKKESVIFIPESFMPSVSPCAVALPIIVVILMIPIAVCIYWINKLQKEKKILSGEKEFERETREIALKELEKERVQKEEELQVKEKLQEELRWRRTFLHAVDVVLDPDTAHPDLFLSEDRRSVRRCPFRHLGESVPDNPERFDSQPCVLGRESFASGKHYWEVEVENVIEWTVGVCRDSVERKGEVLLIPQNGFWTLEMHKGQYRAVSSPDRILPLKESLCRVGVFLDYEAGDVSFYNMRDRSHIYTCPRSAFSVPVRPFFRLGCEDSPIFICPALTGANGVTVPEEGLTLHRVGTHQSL


Key:
[1] = target: T1, recombinant human BTN2A1-Fc fusion …; assay: ELISA, huBTN2A1-Fc coated at 5 µg/mL, mAb titrated, goat anti-mouse IgG HRP, absorbance at 405 nm
Experimental: For ELISA, cynoBTN2A1-Fc protein or recombinant human BTN2A1-Fc (huBTN2A1-Fc, GTP Technologies) were coated (5 μg/mL in 1×PBS) overnight at 4° C. After 3 washes in PBS, plates were saturated with BSA 2% v/v in PBS for 1 h at room temperature, then saturating buffer was discarded. […] All wells were washed 3 times in PBS before addition of Goat anti-mouse IgG HRP (Jackson ImmunoResearch, 1:10000 dilution in PBS BSA 2%) and incubation for 1 h at room temperature. […] All samples were assessed in duplicates.

[2] = target: T1, recombinant human BTN2A1-Fc fusion …; assay: BLI (Octet Red96), biotinylated rhBTN2A1-Fc on streptavidin sensors, chimeric mAb as analyte, 30 °C, 1:1 model
Experimental: Affinity and binning experiments were performed on an Octet Red96 platform (Fortebio/PALL), system based on Bio-layer interferometry (BLI) technology. For affinity experiments, recombinant human (rh)BTN2A1-Fc (GTP) was biotinylated using EZ-Link™ NHS-PEG4 Biotinylation Kit according to manufacturer's instructions, and biotinylated rhBTN2A2-Fc was purchased from R&D Systems. […] For BTN2A2 affinity assays, chimeric anti-BTN2A antibodies were loaded into FAB2G sensors (anti human CH1; Fortebio) as described above, and biotinylated rhBTN2A2-Fc was used as analyte. In both cases, analytes remained in solution and their working concentrations were diluted in Kinetic Buffer 10× (ForteBio). […] All runs (including loading, equilibration, association/dipping of sensors into analyte, dissociation and regeneration) were performed at 30° C. with shaking 1000 rpm. Analysis was performed using a 1:1 or 2:1 Langmuir model (for BTN2A1 or BTN2A2, respectively) calculated by Octet software, which allowed a better fitting calculation.

[3] = target: T2, biotinylated recombinant human …; assay: BLI (Octet Red96), chimeric mAb on FAB2G sensors, biotinylated rhBTN2A2-Fc as analyte, 30 °C, 2:1 model
Experimental: (§1) After generation of the reference anti-BTN2A antibodies in chimeric IgG1 format, affinities for the 2 different isoforms of this target (BTN2A1 and BTN2A2) were evaluated and competition assays were performed to determine whether these mAbs recognized the same epitope region of BTN2A1. Affinity and binning experiments were performed on an Octet Red96 platform (Fortebio/PALL), system based on Bio-layer interferometry (BLI) technology. For affinity experiments, recombinant human (rh)BTN2A1-Fc (GTP) was biotinylated using EZ-Link™ NHS-PEG4 Biotinylation Kit according to manufacturer's instructions, and biotinylated rhBTN2A2-Fc was purchased from R&D Systems. […] For BTN2A2 affinity assays, chimeric anti-BTN2A antibodies were loaded into FAB2G sensors (anti human CH1; Fortebio) as described above, and biotinylated rhBTN2A2-Fc was used as analyte. In both cases, analytes remained in solution and their working concentrations were diluted in Kinetic Buffer 10× (ForteBio). […] All runs (including loading, equilibration, association/dipping of sensors into analyte, dissociation and regeneration) were performed at 30° C. with shaking 1000 rpm. Analysis was performed using a 1:1 or 2:1 Langmuir model (for BTN2A1 or BTN2A2, respectively) calculated by Octet software, which allowed a better fitting calculation.

[4] = target: T3, human BTN2A1-CFP fusion protein …; assay: flow cytometry, MFI on CFP+ HEK-293T BTN2 KO cells transfected with BTN2A1-CFP, 5 ng/mL to 75 µg/mL mAb
[5] = target: T2, biotinylated recombinant human …; assay: BLI (Octet Red96), chimeric mAb on FAB2G sensors, biotinylated rhBTN2A2-Fc as analyte
Experimental: as §1

| EC50 [1] | Kd [2] | Kd [3] | EC50 [4] | binding result [5] | Binder |
| --- | --- | --- | --- | --- | --- |
| 0.82 nM | 0.041 nM | 4.4 nM |  |  | chimeric anti-BTN2A mAb1 (101G5), chimeric IgG1 format (antibody, V domains shown, Chimeric IgG1 (isotype control human IgG1), made in HEK-293 cells; also called anti-BTN2A 101G5) VH: EVQLQQSGPELVKPGASVKISCKASGYSFTVYYMLWVKQSPEKSLEWIGEINPSTGGTTYNQKFKAKATLTVDKSSSTAYMQLKSLTSEDSAVYYCARGPSFYALDYWGQGTSVTVSS VL: EIVLTQSPTTMAASPGEKITITCSATSSISSNYLHWYRHKPGFSPKLLIYRTSNLASGVPGRFSGSGSGTSYSLTIGTMEAEDVATYYCQQGSSIPRTFGGGTKLEIK |
|  |  |  | 0.32 µg/mL |  | purified anti-BTN2A1 107G3 mAb (mouse hybridoma antibody) (antibody, V domains shown, Mouse antibody purified from hybridoma; mouse IgG1 served as its isotype control; also called anti-BTN2A1 mAb 107G3) VH: QVQLKESGPGLVAPSQSLSITCTVSGFSLTNYVISWVRQPPGKGLEWLGVIWTGGDTNYNSALKSRLSISKDNSKSQVFLKMNSLQTGDTARYYCARGGQLGLRGYWGQGTLVTVSA VL: DIVLTQSPASLAVSLGQRATISCRASKTVSSSGYSYMHWYQQKPGQPPKLLIYLASNLESGVPARFSGSGSGTDFTLNIHPVEEEDAATYYCQHSRDLPYAFGGGTKLEIK |
| 0.56 nM | 0.41 nM |  |  | no binding (tested: 200 nM) | chimeric anti-BTN2A mAb2 (107G3), chimeric IgG1 format (antibody, V domains shown, Murine VH and VK cloned into heavy and light chain expression vectors, chimeric IgG1 (isotype control human IgG1), made in HEK-293 cells; also called anti-BTN2A 107G3) VH: QVQLKESGPGLVAPSQSLSITCTVSGFSLTNYVISWVRQPPGKGLEWLGVIWTGGDTNYNSALKSRLSISKDNSKSQVFLKMNSLQTGDTARYYCARGGQLGLRGYWGQGTLVTVSA VL: DIVLTQSPASLAVSLGQRATISCRASKTVSSSGYSYMHWYQQKPGQPPKLLIYLASNLESGVPARFSGSGSGTDFTLNIHPVEEEDAATYYCQHSRDLPYAFGGGTKLEIK |
